Test results published in patent publication US20260216242A1, “ALPP-SPECIFIC VARIANT ANTIGEN BINDING MOLECULES” (ALMAC DISCOVERY LIMITED, priority 2022, published 2026).

T1: ALPI His homodimer (Homo sapiens, UniProt P09923)
T1 sequence (P09923 with tags, fused parts or gaps): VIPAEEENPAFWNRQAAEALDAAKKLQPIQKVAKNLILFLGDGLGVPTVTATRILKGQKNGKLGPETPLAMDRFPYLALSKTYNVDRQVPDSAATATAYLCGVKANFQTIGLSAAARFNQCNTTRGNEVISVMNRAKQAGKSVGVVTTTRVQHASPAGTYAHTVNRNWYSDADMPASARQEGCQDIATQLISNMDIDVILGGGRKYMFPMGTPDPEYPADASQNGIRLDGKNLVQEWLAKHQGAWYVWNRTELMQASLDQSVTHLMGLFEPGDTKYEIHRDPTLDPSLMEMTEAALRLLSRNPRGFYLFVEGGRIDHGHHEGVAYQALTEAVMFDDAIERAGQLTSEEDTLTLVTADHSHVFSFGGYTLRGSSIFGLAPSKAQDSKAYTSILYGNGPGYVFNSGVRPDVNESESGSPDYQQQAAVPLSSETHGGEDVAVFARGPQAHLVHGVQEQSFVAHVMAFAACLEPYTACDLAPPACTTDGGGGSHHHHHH

B1: B09: ALPP targeting VHH domain, SEQ ID NO: 21 (protein)
VHH: QVQLVESGGGSVQAGGSLRLSCAASGPSLSHYAMGWFRQAPGKEREFVAGISWGGGRTSYTDSVKGRFTISRDNAKNTVYLQMNNLKPEDTGVYYCAGRYGRGRNVEYEYDYWGQGTQVTVSS
B2: B11: ALPP targeting VHH domain, SEQ ID NO: 22 (protein)
VHH: QVHLVESGGGSVQAGGSLRLSCAASGPSLSNYAMGWFRQAPGKEREFVAGISWGGGRTSYTDSVKGRFTISRDNAKNTVYLQMNNLKPEDTGVYYCAGRYGRGRNVEYEYDYWGQGTQVTVSS
B3: G03: ALPP targeting VHH domain, SEQ ID NO: 38 (protein)
VHH: QVQLVESGGGTAQAGGSLRLACAASGRSVTMGWLGWVPRAERDDLEFITWFNWGTYYANSVNGRFTISTDNADNTVYPQMNRLKPENPAVYYCASFTGYRPLINRLNDVSDCGHGALVAVSS

Columns and labels:
ALPP [1] = molecular target: T2, ALPP (Homo sapiens, UniProt P05187); assay: Epitope binning by BLI competition assay; assay type: binding; settings: BLI competition on immobilised ALPP
T2 sequence (P05187 with tags, fused parts or gaps): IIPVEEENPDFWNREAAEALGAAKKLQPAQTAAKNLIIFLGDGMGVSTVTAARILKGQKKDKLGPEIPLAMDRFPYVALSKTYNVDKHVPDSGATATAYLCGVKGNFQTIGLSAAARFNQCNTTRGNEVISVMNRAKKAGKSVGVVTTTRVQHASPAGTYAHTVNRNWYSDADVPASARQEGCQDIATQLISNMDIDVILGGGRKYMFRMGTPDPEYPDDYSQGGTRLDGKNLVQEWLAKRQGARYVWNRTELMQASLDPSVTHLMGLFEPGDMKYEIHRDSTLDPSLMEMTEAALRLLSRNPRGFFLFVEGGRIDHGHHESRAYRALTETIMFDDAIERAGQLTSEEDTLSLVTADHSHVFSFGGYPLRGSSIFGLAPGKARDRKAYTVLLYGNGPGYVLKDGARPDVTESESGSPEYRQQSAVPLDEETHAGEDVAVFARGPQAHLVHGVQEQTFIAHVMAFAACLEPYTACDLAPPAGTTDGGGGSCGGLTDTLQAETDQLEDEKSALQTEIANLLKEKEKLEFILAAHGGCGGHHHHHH
Method: To determine epitope cross reactivity BLI competition assays were conducted. AR2G sensors were used and ALPP immobilised as above. ALPP sensors were then dipped into a well containing a saturating concentration of the initial binder for ten minutes to get an association curve. The sensor was then dipped into a well containing the same concentration of initial binder plus 20 nM of a secondary binding.
An increase in the association curve was indicative that the second VHH bound to a distinct epitope from the initial binder. Monomers with identical CDR3s were grouped as likely to be in the same epitope bin and only one from each group used in the epitope binning experiment.

ALPP [2] = molecular target: T2, ALPP; assay: BLI binding kinetics, human ALPP immobilised on AR2G sensors (KD / KD apparent); settings: for hALPP Ka / hALPP Kd: VHH domains
Method: Binding kinetics were determined using the Biolayer Interferometry (BLI) Octet K2 system (Sartorius). Human ALPP, ALPPL2, ALPL (each fused with a cysteine stabilised leucine zipper) and ALPI, (SEQ ID NO: 265, SEQ ID NO: 266 and SEQ ID NO: 267 and SEQ ID NO: 264 respectively) were immobilised in sodium acetate pH5 buffer to AR2G sensors using amine coupling. All assays were conducted in PBS with a plate temperature of 25° C. Ka (M^−1s^−1), Kd (s^−1) and KD (nM) values were determined using Octet Data Analysis High Throughput software (ForteBio) for Biolayer Interferometry.
(§1) Binding kinetics were determined using the Biolayer Interferometry (BLI) Octet K2 or R4 system (Sartorius). Human ALPP, ALPPL2 and ALPL all fused with a disulphide stabilised leucine zipper (SEQ ID NO: 265, SEQ ID NO: 266, and SEQ ID NO: 267) and ALPI His (SEQ ID NO: 264) were used in BLI experiments. For KD apparent measurements, the ALPP proteins were immobilised in sodium acetate pH5 buffer to AR2G sensors using amine coupling. To measure 1:1 interactions, AHC biosensors were used to immobilise Fc-fused proteins. All assays were conducted in HBS-EP with a plate temperature of 25° C. Ka (M^−1s^−1), Kd (s^−1) and KD (nM) values were determined using Octet Data Analysis High Throughput software (Sartorius) for Biolayer Interferometry.
as §1, with “NO:264)” for “NO: 264)”

ALPI His homodimer = molecular target: T1, ALPI His homodimer; assay: ELISA binding to ALPI; settings: 500 ng purified VHH
Method: ELISA was used to test the binding and specificity of the VHHs. ALPP CysHis (SEQ ID NO: 263), ALPI His homodimer (SEQ ID NO: 264) or BSA (Thermo Fisher) were coated onto plates and 500 ng of each purified VHH added. Anti-Llama—HRP antibody was used for detection.

[3] = Thermal stability (Protein Thermal Shift assay); assay type: physicochemical; settings: VHH domains, first derivative analysis
Method: Thermal stability assays used Applied Biosystems StepOne Real Time PCR system with the Protein Thermal Shift™ dye kit (Thermo Fisher). The assay mix was set up so that the protein was at a final concentration of 20 µM in 20 μL. 5 μL of Thermal Shift™ buffer was added alongside 2.5 μL 8× Thermal Shift™ Dye. Assays were run using the StepOne software and data analysed using Protein Thermal Shift™ software. All data are from first derivative analysis.

| Molecule | epitope bin (ALPP [1]) | hALPP Ka (ALPP [2]) [M⁻¹ s⁻¹] | hALPP Kd (ALPP [2]) [s⁻¹] | ELISA hALPI (ALPI His homodimer) | Tm [3] [°C] | Kd (ALPP [2]; VHH domains (His-tagged monomers), PBS, 25° C., read-out: hALPP KD) [nM] |
| --- | --- | --- | --- | --- | --- | --- |
| B1 | one | 237000 | <1e-07 | No Binding | 77.1 |  |
| B2 | one | 213000 | 0.000017 | No Binding | 77.4 |  |
| B3 | one | 47400 | <1e-07 | No Binding | 74.0 | < 0.01 |
